From patent US20140128569A1 (PANASONIC, published 2014)

Biological target: T1, polypeptide consisting of the amino acid sequence represented by SEQ ID NO: 01, contained in troponin I … (human)
T1 peptide: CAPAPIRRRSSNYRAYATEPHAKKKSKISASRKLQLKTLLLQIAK
Assay: phage ELISA; average absorbance relative to example 2-1 (no heat); told of the conditions <=70 C and <=5 min, <=60 C and <=10 min, <=50 C and <=20 min, <=37 C and <=60 min
Method: Pursuant to the step (a-8), the ELISA plate was prepared.
A phage binding ratio was calculated from Table 10 on the basis of the following formula (I): […]

B1: A2 antibody-displayed phage (scFv)
scFv: DVVLTQSPLTLSVTIGQPASISCKSSQSLLDSDGKTYLNWLLQRPGQSPKRLIYLVSKLDSGVPDRFTGSGSGTDFTLKISRVEAEDLGVYYCWQGTHFPLTFGAGTKLEIKRGGGGSGGGGSGGGGSQLQLQQSGAELVRSGASVKLSCTASGFNIKDYYMNWVKQRPEQGLEWIGWIDPANGDTAYAPRFQVKATMTADKSSNTAYLQLSSLTSEDTAVYYCNADLPMDQWGQGTSVTVSS
notes: 67, 68, 69 its parts; they must be translated; also called A2 antibody fragment; A2 scFv antibody fragment
- phage binding ratio: 40%
